Results reported in publication doi:10.1101/2022.01.10.475532.

Legend:
[1] = biological target: prefusion-stabilized S protein of SARS-CoV-2 G614 variant (S trimer) (SARS-CoV-2); assay: BLI
[2] = biological target: prefusion-stabilized S protein of SARS-CoV-2 Delta (B.1.617.2) variant (S trimer) (SARS-CoV-2); assay: BLI

human ACE2 peptidase domain (PD), sequence (Q9BYF1 18-615): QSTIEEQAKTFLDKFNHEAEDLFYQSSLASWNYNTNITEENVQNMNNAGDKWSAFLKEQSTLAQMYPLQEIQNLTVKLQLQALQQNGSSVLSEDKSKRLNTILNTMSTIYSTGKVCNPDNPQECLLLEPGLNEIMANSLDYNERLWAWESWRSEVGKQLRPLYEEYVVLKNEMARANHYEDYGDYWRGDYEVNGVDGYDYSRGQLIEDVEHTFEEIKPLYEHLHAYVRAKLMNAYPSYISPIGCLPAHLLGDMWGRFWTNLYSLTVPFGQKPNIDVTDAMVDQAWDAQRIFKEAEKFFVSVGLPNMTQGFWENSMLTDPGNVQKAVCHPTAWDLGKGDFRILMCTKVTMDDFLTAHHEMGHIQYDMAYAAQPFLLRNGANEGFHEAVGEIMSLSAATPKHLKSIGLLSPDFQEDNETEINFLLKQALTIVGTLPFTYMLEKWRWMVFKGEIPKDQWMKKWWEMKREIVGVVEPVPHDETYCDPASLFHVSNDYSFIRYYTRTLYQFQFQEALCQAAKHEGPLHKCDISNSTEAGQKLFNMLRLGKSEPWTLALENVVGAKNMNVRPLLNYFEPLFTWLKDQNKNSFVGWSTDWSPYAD

human ACE2 peptidase domain (PD) (from UniProt Q9BYF1 18-615) (domain or fragment)
Kd [1]: 0.237 µM | Kd [2]: 0.088 µM
